The target of assay [1] is COOH-terminal region of utrophin construct (TDRII) (UniProt P46939). The assay is described as follows: co-IP.
The target in assay [2] is COOH-terminal region of dystrophin construct (C2979) (UniProt P11532). Nature of the assay: co-IP.

Where “and” joins values, the source holds several entries; their conditions need not be identical. Equal values may be shown once.

UniProt P11532, sequence (P11532 2980-3685): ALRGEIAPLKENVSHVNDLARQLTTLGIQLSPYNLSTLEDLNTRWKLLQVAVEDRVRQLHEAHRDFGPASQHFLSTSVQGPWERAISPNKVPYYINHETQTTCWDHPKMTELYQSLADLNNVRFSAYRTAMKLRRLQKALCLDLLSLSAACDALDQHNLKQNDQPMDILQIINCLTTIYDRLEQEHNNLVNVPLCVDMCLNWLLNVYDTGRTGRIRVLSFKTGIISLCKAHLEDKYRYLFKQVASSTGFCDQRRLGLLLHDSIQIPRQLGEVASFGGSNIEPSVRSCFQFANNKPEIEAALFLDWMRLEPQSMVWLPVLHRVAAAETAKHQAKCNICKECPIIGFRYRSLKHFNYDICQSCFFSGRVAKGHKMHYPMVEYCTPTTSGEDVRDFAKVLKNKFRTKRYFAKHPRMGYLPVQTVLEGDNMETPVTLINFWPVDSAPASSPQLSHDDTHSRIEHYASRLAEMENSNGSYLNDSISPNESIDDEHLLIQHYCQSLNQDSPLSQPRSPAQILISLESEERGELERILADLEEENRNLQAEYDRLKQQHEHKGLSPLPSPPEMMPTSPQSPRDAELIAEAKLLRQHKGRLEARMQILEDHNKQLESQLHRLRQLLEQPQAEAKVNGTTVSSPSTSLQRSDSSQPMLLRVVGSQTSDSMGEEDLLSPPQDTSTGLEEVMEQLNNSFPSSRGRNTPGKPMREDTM
UniProt P46939, sequence (P46939 2753-3432): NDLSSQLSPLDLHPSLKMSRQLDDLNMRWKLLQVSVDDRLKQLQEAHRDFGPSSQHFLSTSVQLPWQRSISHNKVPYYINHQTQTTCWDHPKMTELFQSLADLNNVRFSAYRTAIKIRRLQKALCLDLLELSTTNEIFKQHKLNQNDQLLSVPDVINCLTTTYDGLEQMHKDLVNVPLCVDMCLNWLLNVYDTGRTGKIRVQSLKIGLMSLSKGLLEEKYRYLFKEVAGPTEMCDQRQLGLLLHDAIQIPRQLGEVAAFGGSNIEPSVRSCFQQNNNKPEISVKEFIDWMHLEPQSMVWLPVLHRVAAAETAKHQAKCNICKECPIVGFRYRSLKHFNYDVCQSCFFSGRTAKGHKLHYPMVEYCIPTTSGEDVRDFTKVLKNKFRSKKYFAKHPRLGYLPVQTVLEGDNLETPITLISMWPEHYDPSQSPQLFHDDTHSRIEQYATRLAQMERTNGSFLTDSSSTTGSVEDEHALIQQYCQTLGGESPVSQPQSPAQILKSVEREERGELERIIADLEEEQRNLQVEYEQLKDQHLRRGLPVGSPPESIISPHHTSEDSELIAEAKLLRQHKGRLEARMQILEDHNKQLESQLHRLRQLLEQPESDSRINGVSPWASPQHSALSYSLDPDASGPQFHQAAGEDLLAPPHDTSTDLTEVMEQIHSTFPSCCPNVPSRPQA

As to “full-length α-dystrobrevin-1 construct (exons 1-21) (natural protein)”, in assay [1], the fold (+Ab over control without antibody) is 3.1 fold and 4 fold and 3 fold; the fold (+Ab over control without antibody), average of five experiments came to 3.3 fold. The substance further had a fold (+Ab over control without antibody), average of five experiments in assay [2] of 3 fold.

As to “α-dystrobrevin-2 construct (exons 1-17B) (natural protein)”, in assay [1], the fold (+Ab over control without antibody) was 1.3 fold and 0.9 fold and 1 fold; the fold (+Ab over control without antibody), average of five experiments amounted to 1 fold. Besides, in assay [2], the fold (+Ab over control without antibody) is 3.7 fold and 4.2 fold and 3.3 fold.

These data come from article PMC2149339.
